In patent publication US20240132593A1 one finds ELISA Abs 450 nm and EC50 data, which are given here for one substance.

In one assay the target is RFQ-VISTA-ECD-Fc (human). The assay is described as follows: ELISA, 10 ug/mL antibody on plate-bound mutant VISTA-Fc. (In general: In an ELISA, binding on a coated surface is turned into a signal by an enzyme label.)
The target of another assay is 5.1-VISTA-ECD-Fc (human). The assay is described as follows: ELISA on plate-bound VISTA-ECD-Fc.
Assay [1] deals with 2.1C-VISTA-ECD-Fc (human). The assay is described as follows: ELISA on plate-bound VISTA-ECD-Fc.
Sequence of 2.1C-VISTA-ECD-Fc (human) (chain, as listed by the source): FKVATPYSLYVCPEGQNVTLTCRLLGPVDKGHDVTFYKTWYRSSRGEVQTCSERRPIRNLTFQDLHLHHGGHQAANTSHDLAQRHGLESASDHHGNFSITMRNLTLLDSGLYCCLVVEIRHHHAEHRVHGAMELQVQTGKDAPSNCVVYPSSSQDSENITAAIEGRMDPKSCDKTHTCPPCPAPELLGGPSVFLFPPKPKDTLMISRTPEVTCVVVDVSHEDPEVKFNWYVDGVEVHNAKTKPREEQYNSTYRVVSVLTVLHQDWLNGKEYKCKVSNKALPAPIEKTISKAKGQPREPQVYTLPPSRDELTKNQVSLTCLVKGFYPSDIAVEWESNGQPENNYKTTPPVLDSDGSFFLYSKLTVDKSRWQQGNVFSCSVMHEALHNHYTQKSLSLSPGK
For another assay, the target named is 4.1-VISTA-ECD-Fc (human). Nature of the assay: ELISA on plate-bound VISTA-ECD-Fc.
Sequence of 4.1-VISTA-ECD-Fc (human) (chain, as listed by the source): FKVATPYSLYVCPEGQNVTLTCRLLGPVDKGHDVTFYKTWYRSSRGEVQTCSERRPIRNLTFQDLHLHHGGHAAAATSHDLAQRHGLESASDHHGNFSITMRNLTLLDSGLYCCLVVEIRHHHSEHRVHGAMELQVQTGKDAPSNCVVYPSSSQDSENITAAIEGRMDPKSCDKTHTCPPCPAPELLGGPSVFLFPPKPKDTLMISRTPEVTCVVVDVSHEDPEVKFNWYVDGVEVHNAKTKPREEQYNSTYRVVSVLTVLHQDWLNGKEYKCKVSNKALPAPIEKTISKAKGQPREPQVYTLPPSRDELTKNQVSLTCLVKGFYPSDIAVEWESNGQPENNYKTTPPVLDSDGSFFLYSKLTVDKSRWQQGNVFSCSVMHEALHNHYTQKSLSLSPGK

Sequence of RFQ-VISTA-ECD-Fc (human) (chain, as listed by the source): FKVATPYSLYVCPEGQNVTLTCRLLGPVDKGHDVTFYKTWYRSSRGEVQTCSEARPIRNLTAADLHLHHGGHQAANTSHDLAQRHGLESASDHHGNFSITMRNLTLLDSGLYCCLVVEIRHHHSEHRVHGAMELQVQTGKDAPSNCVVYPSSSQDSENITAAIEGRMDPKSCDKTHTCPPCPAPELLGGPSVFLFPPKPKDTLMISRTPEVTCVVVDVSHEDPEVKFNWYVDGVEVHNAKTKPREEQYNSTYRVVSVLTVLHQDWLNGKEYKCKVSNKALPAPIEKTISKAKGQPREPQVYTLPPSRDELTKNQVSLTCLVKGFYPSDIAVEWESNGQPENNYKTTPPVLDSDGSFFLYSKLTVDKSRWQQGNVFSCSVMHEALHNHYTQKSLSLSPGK
Sequence of 5.1-VISTA-ECD-Fc (human) (chain, as listed by the source): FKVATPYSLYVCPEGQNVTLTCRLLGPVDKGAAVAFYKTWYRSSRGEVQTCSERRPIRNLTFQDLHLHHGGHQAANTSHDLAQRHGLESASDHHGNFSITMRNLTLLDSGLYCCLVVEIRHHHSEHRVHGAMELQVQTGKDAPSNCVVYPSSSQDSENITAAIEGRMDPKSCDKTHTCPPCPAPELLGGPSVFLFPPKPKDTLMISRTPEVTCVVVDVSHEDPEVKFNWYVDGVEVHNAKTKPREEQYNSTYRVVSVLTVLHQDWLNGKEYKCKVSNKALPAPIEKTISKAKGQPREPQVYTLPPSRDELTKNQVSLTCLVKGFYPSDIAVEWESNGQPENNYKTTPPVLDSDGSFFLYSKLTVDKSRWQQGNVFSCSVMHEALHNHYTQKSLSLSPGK

Broadly, the EC50 is the midpoint of the concentration-response curve. A high value points to weaker potency. In the assay with RFQ-VISTA-ECD-Fc (human), IgG1 (antibody) yielded an ELISA Abs 450 nm of 0.019 Abs 450 nm. For the same substance, the EC50 (with 5.1-VISTA-ECD-Fc (human); in assay [1]; in the assay with 4.1-VISTA-ECD-Fc (human)) was 100 µg/mL throughout.
